Data set [1] deals with T1, SpeB (Escherichia coli, UniProt P60651).
T1 construct: agmatinase; construct and assay details only in supplement
T1 sequence (P60651 1-306): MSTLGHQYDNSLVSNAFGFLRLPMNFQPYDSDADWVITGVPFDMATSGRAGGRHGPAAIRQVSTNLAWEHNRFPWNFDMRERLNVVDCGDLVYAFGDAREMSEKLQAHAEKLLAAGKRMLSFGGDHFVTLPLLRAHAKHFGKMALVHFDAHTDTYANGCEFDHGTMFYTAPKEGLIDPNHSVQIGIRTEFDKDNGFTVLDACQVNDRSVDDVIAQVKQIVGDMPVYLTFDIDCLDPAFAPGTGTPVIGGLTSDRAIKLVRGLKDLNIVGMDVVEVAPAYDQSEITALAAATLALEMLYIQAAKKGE
Description: agmatinase activity versus pH (details in supplement). Format: biochemical. The following applies: alkaline pH preferred; enzyme preparation not given.

Substrate in data set [2]: N=C(N)NCCC[C@H](N)C(=O)O
Description: agmatine formation by HPLC, Michaelis-Menten fit. Format: biochemical, Escherichia coli. The note with it: pH 7.0, 37 °C, 0.5 mmol·L^−1 PLP, 2.5 mmol·L^−1 MgSO4, 5 mmol·L^−1 DTT. The text has this: agmatine formation by HPLC, Michaelis-Menten fit on AdiA

Usually Km stands for the concentration of substrate that gives half-maximal velocity. By kcat is commonly meant the maximal rate divided by the concentration of active sites. A word on the kcat/Km: it is the turnover number divided by the Michaelis constant.

Positions count from the first letter of the chain named. Names and notes keep the numbering of the source.

As for `N=C(N)NCCCCN` [agmatine], in data set [1], the “agmatinase activity versus pH (details in supplement)” value was “SpeB, agmatinase that catalyzes the synthesis of putrescine from agmatine”.

B1: AdiA (Escherichia coli K-12) (protein)
chain: MKVLIVESEFLHQDTWVGNAVERLADALSQQNVTVIKSTSFDDGFAILSSNEAIDCLMFSYQMEHPDEHQNVRQLIGKLHERQQNVPVFLLGDREKALAAMDRDLLELVDEFAWILEDTADFIAGRAVAAMTRYRQQLLPPLFSALMKYSDIHEYSWAAPGHQGGVGFTKTPAGRFYHDYYGENLFRTDMGIERTSLGSLLDHTGAFGESEKYAARVFGADRSWSVVVGTSGSNRTIMQACMTDNDVVVVDRNCHKSIEQGLMLTGAKPVYMVPSRNRYGIIGPIYPQEMQPETLQKKISESPLTKDKAGQKPSYCVVTNCTYDGVCYNAKEAQDLLEKTSDRLHFDEAWYGYARFNPIYADHYAMRGEPGDHNGPTVFATHSTHKLLNALSQASYIHVREGRGAINFSRFNQAYMMHATTSPLYAICASNDVAVSMMDGNSGLSLTQEVIDEAVDFRQAMARLYKEFTADGSWFFKPWNKEVVTDPQTGKTYDFADAPTKLLTTVQDCWVMHPGESWHGFKDIPDNWSMLDPIKVSILAPGMGEDGELEETGVPAALVTAWLGRHGIVPTRTTDFQIMFLFSMGVTRGKWGTLVNTLCSFKRHYDANTPLAQVMPELVEQYPDTYANMGIHDLGDTMFAWLKENNPGARLNEAYSGLPVAEVTPREAYNAIVDNNVELVSIENLPGRIAANSVIPYPPGIPMLLSGENFGDKNSPQVSYLRSLQSWDHHFPGFEHETEGTEIIDGIYHVMCVKA
notes: recombinant full-length acid-induced arginine decarboxylase; homodecamer (five dimers) with PLP; plasmids in supplement
For the molecule B1, in data set [2], the Km amounted to 12.08 ± 0.86 mmol/L, the kcat was determined as 3.54 ± 0.28 s⁻¹ and the kcat/Km is 290 M⁻¹ s⁻¹.

B2: AdiA (Escherichia coli K-12; E467K/H736E) (protein)
chain: B1 chain with E467K, H736E
notes: as for B1
Regarding B2, in data set [2], the Michaelis-Menten constant (Km) came out at 15.70 ± 0.87 mmol/L, the kcat came to 29.2 ± 0.44 s⁻¹ and the kcat/Km is 1860 M⁻¹ s⁻¹.

B3: AdiA (Escherichia coli K-12; H736E) (protein)
chain: B1 chain with H736E
notes: as for B1
As for B3, in data set [2], the Km was found to be 15.27 ± 0.79 mmol/L, the turnover number (kcat) was found to be 17.5 ± 0.55 s⁻¹ and the specificity constant (kcat/Km) came to 1150 M⁻¹ s⁻¹.

B4: AdiA (Escherichia coli K-12; E467K) (protein)
chain: B1 chain with E467K
notes: as for B1
As for B4, in data set [2], the Michaelis constant (Km) came out at 14.30 ± 0.64 mmol/L, the kcat turned out to be 15.2 ± 0.23 s⁻¹ and the kcat/Km is 1060 M⁻¹ s⁻¹.

The values are drawn from PMC11186044, “Rationally Engineering pH Adaptation of Acid‐Induced Arginine Decarboxylase from Escherichia coli to Alkaline Environments to Efficiently Biosynthesize Putrescine” (Advanced Science, 2024).
